In assay [1] the target is recombinant mouse CD96-his (788806; Biolegend) (mouse) (UniProt Q3U0X8). The assay can be described thus: SPR (Biacore T200), single-cycle kinetics, mCD96-his captured by anti-His, 1:1 Langmuir fit.
For assay [2], the target named is recombinant mouse CD226-his (50232-M08H; SinoBiological) (mouse) (UniProt Q8K4F0). The assay can be described thus: SPR (Biacore T200), single-cycle kinetics, mCD226-his captured by anti-His, 1:1 Langmuir fit. Background: SPR reads the build-up and loss of mass on a sensor chip optically.
Chain of UniProt Q8K4F0 (Q8K4F0 19-254 limits assumed, stated change not applied): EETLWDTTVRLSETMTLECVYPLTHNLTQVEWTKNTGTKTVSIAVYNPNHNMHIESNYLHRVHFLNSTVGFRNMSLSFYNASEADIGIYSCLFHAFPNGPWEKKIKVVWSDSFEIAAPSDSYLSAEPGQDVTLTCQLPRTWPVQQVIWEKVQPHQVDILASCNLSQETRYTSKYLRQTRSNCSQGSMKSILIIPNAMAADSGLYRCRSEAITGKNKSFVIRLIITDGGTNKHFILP
Assay [3] deals with recombinant mouse TIGIT-Fc-his (771808; Biolegend) (mouse) (UniProt P86176). Briefly: SPR (Biacore T200), single-cycle kinetics, mTIGIT-Fc-his captured by anti-His, 1:1 Langmuir fit.
Chain of UniProt P86176 (P86176 29-148 limits assumed): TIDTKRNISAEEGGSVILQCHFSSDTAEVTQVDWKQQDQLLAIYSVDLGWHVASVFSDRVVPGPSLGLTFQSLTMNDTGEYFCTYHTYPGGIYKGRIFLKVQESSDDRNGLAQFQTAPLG

pKd: −log10 of the molar value.

Chain of UniProt Q3U0X8 (Q3U0X8 22-536 limits assumed): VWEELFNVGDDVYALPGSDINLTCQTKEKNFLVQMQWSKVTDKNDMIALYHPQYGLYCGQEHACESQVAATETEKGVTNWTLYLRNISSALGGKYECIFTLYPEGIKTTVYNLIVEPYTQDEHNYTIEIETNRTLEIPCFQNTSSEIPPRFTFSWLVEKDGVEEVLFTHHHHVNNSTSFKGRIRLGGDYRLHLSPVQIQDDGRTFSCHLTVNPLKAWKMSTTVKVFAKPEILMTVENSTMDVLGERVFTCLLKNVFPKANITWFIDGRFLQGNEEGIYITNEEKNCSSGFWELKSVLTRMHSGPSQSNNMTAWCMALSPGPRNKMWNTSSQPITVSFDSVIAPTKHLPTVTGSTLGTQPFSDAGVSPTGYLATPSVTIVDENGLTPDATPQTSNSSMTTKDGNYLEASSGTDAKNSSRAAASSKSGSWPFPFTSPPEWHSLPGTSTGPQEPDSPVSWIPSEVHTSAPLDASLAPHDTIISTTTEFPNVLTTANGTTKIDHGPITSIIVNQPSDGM

By pKd is commonly meant −log10 of the Kd, conventionally taken in molar units. Usually koff stands for the first-order rate constant of dissociation. The kon is a measure of how fast the partners come together. In the case of “PVR-Fc (786608; Biolegend), full-length mouse PVR ECD-Fc (Fc fusion)”, in assay [1], the pKd was 8.39, the koff came out at 0.00455 s⁻¹ and the association rate constant (kon) came to 1.17e+06 M⁻¹ s⁻¹. For the same substance, in assay [2], the pKd was 9.08. Moreover, in assay [3], the pKd was 8.65, the koff amounted to 0.0646 s⁻¹ and the kon is 2.25e+07 M⁻¹ s⁻¹.
